Assays:
Assay in all cases: two-hybrid library CCNG1;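 also: natural log of median RNA to DNA barcode read ratio; higher means stronger binding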
4H2702-bA = biological target: T1, 4H2702-bA
T1 chain: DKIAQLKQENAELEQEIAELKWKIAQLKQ

4H683-bA = biological target: T2, 4H683-bA
T2 chain: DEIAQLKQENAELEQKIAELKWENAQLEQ

4H855-bA = biological target: T3, 4H855-bA
T3 chain: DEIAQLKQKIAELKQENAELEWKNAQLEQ

4H575-bA = biological target: T4, 4H575-bA
T4 chain: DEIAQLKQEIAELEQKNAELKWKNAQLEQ

4H346-bA = biological target: T5, 4H346-bA
T5 chain: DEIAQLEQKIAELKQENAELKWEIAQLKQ

4H953-bA = biological target: T6, 4H953-bA
T6 chain: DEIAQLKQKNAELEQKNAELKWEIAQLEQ

4H754-bA = biological target: T7, 4H754-bA
T7 chain: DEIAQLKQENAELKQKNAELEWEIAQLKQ

4H797-bA = biological target: T8, 4H797-bA
T8 chain: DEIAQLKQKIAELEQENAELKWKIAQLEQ

4H457-bA = biological target: T9, 4H457-bA
T9 chain: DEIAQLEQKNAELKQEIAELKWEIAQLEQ

4H780-bA = biological target: T10, 4H780-bA
T10 chain: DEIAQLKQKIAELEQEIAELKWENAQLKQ

4H918-bA = biological target: T11, 4H918-bA
T11 chain: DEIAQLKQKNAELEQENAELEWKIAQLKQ

4H3427-bA = biological target: T12, 4H3427-bA
T12 chain: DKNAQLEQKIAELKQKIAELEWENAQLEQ

4H968-bA = biological target: T13, 4H968-bA
T13 chain: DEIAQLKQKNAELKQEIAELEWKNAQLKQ

4H2586-bA = biological target: T14, 4H2586-bA
T14 chain: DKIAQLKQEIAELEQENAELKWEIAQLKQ

4H2673-bA = biological target: T15, 4H2673-bA
T15 chain: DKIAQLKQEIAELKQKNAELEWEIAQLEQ

O2-bN = biological target: T16, O2-bN
T16 chain: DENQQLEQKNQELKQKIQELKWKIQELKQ

4H3112-bA = biological target: T17, 4H3112-bA
T17 chain: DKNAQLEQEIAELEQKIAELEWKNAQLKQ

4H4073-bA = biological target: T18, 4H4073-bA
T18 chain: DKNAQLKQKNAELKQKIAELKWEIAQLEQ

4H3926-bA = biological target: T19, 4H3926-bA
T19 chain: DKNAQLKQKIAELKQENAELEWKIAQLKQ

4H2627-bA = biological target: T20, 4H2627-bA
T20 chain: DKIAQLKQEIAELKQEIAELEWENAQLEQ

4H3010-bA = biological target: T21, 4H3010-bA
T21 chain: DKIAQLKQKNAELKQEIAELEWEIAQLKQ

4H454-bH = biological target: T22, 4H454-bH
T22 chain: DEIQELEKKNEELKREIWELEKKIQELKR

4H883-bH = biological target: T23, 4H883-bH
T23 chain: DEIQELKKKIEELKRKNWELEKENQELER

P4A-bP = biological target: T24, P4A-bP
T24 chain: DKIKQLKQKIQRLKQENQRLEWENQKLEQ

4H607-bH = biological target: T25, 4H607-bH
T25 chain: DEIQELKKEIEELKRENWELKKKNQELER

4H953-bH = biological target: T26, 4H953-bH
T26 chain: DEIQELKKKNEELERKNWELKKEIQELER

4H687-bH = biological target: T27, 4H687-bH
T27 chain: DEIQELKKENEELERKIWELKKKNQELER

4H797-bH = biological target: T28, 4H797-bH
T28 chain: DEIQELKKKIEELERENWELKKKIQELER

4H932-bH = biological target: T29, 4H932-bH
T29 chain: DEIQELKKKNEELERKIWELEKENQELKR

4H908-bH = biological target: T30, 4H908-bH
T30 chain: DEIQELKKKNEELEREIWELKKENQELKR

4H754-bH = biological target: T31, 4H754-bH
T31 chain: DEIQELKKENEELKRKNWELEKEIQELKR

4H918-bH = biological target: T32, 4H918-bH
T32 chain: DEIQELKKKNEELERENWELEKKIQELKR

4H717-bH = biological target: T33, 4H717-bH
T33 chain: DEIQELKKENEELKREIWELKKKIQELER

4H4001-bH = biological target: T34, 4H4001-bH
T34 chain: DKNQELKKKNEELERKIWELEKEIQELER

4H568-bH = biological target: T35, 4H568-bH
T35 chain: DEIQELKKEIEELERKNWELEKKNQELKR

4H967-bH = biological target: T36, 4H967-bH
T36 chain: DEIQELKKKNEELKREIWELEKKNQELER

4H72-bH = biological target: T37, 4H72-bH
T37 chain: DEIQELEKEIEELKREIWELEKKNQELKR

4H462-bH = biological target: T38, 4H462-bH
T38 chain: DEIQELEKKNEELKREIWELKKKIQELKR

4H2729-bH = biological target: T39, 4H2729-bH
T39 chain: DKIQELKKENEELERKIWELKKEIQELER

4H3782-bH = biological target: T40, 4H3782-bH
T40 chain: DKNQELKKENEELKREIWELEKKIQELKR

4H2667-bH = biological target: T41, 4H2667-bH
T41 chain: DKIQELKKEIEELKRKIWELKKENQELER

4H3427-bH = biological target: T42, 4H3427-bH
T42 chain: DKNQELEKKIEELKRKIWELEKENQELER

4H48-bN = biological target: T43, 4H48-bN
T43 chain: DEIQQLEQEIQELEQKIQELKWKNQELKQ

4H3855-bH = biological target: T44, 4H3855-bH
T44 chain: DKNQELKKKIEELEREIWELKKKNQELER

4H331-bH = biological target: T45, 4H331-bH
T45 chain: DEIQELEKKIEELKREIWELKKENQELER

4H3354-bH = biological target: T46, 4H3354-bH
T46 chain: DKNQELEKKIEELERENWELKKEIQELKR

4H3112-bH = biological target: T47, 4H3112-bH
T47 chain: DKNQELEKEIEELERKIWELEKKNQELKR

4H338-bH = biological target: T48, 4H338-bH
T48 chain: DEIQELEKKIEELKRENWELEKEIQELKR

4H2618-bH = biological target: T49, 4H2618-bH
T49 chain: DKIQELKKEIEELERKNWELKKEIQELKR

4H3185-bH = biological target: T50, 4H3185-bH
T50 chain: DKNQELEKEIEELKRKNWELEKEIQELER

4H48-bA = biological target: T51, 4H48-bA
T51 chain: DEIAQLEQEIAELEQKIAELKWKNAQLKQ

4H491-bA = biological target: T52, 4H491-bA
T52 chain: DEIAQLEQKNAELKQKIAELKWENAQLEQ

4H491-bN = biological target: T53, 4H491-bN
T53 chain: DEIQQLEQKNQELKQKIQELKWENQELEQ

4H496-bH = biological target: T54, 4H496-bH
T54 chain: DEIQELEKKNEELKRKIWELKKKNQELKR

P6A-bP = biological target: T55, P6A-bP
T55 chain: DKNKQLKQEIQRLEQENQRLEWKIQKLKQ

P9A-bP = biological target: T56, P9A-bP
T56 chain: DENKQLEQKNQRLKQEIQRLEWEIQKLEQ

P8A-bP = biological target: T57, P8A-bP
T57 chain: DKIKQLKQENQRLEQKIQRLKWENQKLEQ

P5A-bP = biological target: T58, P5A-bP
T58 chain: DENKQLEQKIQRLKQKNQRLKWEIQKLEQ

P7A-bP = biological target: T59, P7A-bP
T59 chain: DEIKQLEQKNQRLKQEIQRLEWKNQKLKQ

B1: 4H2586-bA (peptide)
chain: DKIAQLKQEIAELEQENAELKWEIAQLKQ
With B1 the interaction score (4H2702-bA) was 0.531, the interaction score (4H683-bA) was 0.537 and the interaction score (4H855-bA) was 1.54. The interaction score (4H575-bA) was -0.515, the interaction score (4H346-bA) was 0.976 and the interaction score (4H953-bA) was 1.17. The interaction score (4H754-bA) was -1.06, the interaction score (4H797-bA) was 0.763 and the interaction score (4H457-bA) was 0.765. The interaction score (4H780-bA) was -1.17, the interaction score (4H918-bA) was -0.499 and the interaction score (4H3427-bA) was -0.911. It also gave an interaction score (4H968-bA) of -1.91, an interaction score (4H2586-bA) of 1.48 and an interaction score (4H2673-bA) of 0.53. The interaction score (O2-bN) was -0.327, the interaction score (4H3112-bA) was -1 and the interaction score (4H4073-bA) was 0.255. It also gave an interaction score (4H3926-bA) of 1.9, an interaction score (4H2627-bA) of 0.292 and an interaction score (4H3010-bA) of 1.28.

B2: 4H4001-bH (peptide)
chain: DKNQELKKKNEELERKIWELEKEIQELER
Work on B2 yielded an interaction score (4H454-bH) of 1.29, an interaction score (4H883-bH) of -1.67 and an interaction score (P4A-bP) of 0.398. It also gave an interaction score (4H607-bH) of -2.7, an interaction score (4H953-bH) of -1.36 and an interaction score (4H687-bH) of -0.869. It also gave an interaction score (4H797-bH) of -0.61, an interaction score (4H932-bH) of 0.0317 and an interaction score (4H908-bH) of -0.558. It also gave an interaction score (4H754-bH) of -0.348, an interaction score (4H918-bH) of -2.1 and an interaction score (4H717-bH) of -0.479. For the same binder, the interaction score (4H4001-bH) was -0.117, the interaction score (4H568-bH) was -0.215 and the interaction score (4H967-bH) was -2.28. The interaction score (4H72-bH) was -2.05 and the interaction score (4H462-bH) was -0.256.

B3: 4H2618-bH (peptide)
chain: DKIQELKKEIEELERKNWELKKEIQELKR
B3 was tested, and the interaction score (4H454-bH) was 1.16, the interaction score (4H883-bH) was 0.271 and the interaction score (4H607-bH) was -1.63. The interaction score (4H953-bH) was 0.869, the interaction score (4H2729-bH) was 2 and the interaction score (4H687-bH) was 0.466. For the same binder, the interaction score (4H3782-bH) was -0.244, the interaction score (4H2667-bH) was 0.678 and the interaction score (4H3427-bH) was 1.07. The interaction score (4H797-bH) was 0.872, the interaction score (4H48-bN) was 1.54 and the interaction score (4H908-bH) was -1.01. For the same binder, the interaction score (4H754-bH) was -0.696, the interaction score (4H918-bH) was 0.911 and the interaction score (4H717-bH) was -0.283. It also gave an interaction score (4H4001-bH) of 0.338, an interaction score (4H3855-bH) of -0.442 and an interaction score (4H331-bH) of 1.85. It also gave an interaction score (4H568-bH) of -0.291, an interaction score (4H967-bH) of -0.781 and an interaction score (4H3354-bH) of 0.422. It also gave an interaction score (4H72-bH) of -0.76, an interaction score (4H3112-bH) of -0.148 and an interaction score (4H338-bH) of 1.42. For the same binder, the interaction score (4H2618-bH) was 1.05 and the interaction score (4H3185-bH) was 1.08.

B4: 4H48-bA (peptide)
chain: DEIAQLEQEIAELEQKIAELKWKNAQLKQ
B4 showed an interaction score (4H48-bA) of 1.25 and an interaction score (4H491-bA) of 1.09.

B5: 4H48-bN (peptide)
chain: DEIQQLEQEIQELEQKIQELKWKNQELKQ
B5 gave an interaction score (4H48-bN) of 1.04 and an interaction score (4H491-bN) of -0.799.

B6: 4H496-bH (peptide)
chain: DEIQELEKKNEELKRKIWELKKKNQELKR
B6 gave an interaction score (4H496-bH) of -0.197.

B7: P4A-bP (peptide)
chain: DKIKQLKQKIQRLKQENQRLEWENQKLEQ
With B7 the interaction score (P6A-bP) was -0.773, the interaction score (P4A-bP) was -1.09 and the interaction score (P9A-bP) was -0.489. It also gave an interaction score (P8A-bP) of -0.918, an interaction score (P5A-bP) of -1.59 and an interaction score (P7A-bP) of -1.51.
